Earlier results on four substances are cited in article PMC7295915.

As a reminder, the Kd is the free concentration of one partner at which half of the binding sites on the other are occupied at equilibrium, for simple one-to-one binding.

Targets include CD48 (Homo sapiens) (UniProt P09326); CD80 (Homo sapiens) (UniProt P33681); CD40L (Homo sapiens) (UniProt P29965); ICAM-1 (Homo sapiens) (UniProt P05362).

LFA-1, sequence (P20701 26-1090): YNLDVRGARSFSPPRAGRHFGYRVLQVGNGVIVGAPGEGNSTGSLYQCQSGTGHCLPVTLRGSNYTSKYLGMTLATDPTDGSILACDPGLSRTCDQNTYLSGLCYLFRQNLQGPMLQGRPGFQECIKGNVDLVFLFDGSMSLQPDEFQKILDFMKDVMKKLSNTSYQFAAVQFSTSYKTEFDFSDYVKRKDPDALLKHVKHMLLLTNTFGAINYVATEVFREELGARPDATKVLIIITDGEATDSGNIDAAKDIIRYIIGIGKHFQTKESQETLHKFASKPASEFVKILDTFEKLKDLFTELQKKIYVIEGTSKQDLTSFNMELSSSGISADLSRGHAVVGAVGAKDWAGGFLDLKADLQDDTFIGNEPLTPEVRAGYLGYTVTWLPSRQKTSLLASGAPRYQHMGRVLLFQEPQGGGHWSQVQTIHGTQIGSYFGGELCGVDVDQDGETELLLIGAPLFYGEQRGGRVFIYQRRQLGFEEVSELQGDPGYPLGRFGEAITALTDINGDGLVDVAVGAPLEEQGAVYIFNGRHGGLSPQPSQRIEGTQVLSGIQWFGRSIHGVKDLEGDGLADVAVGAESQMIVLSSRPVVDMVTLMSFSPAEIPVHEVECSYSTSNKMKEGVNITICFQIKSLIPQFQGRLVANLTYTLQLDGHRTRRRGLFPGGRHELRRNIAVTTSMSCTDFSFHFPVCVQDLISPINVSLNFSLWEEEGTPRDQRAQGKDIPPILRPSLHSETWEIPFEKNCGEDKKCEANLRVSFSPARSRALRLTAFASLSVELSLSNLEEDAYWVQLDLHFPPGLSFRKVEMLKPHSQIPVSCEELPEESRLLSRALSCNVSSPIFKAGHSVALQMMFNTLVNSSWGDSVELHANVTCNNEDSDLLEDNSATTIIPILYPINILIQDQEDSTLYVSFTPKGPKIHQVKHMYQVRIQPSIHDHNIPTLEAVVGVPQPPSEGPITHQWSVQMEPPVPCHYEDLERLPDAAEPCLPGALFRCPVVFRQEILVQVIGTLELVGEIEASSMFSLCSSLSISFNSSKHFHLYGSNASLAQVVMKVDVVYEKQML
LFA-1, sequence (P05107 23-700, further chain): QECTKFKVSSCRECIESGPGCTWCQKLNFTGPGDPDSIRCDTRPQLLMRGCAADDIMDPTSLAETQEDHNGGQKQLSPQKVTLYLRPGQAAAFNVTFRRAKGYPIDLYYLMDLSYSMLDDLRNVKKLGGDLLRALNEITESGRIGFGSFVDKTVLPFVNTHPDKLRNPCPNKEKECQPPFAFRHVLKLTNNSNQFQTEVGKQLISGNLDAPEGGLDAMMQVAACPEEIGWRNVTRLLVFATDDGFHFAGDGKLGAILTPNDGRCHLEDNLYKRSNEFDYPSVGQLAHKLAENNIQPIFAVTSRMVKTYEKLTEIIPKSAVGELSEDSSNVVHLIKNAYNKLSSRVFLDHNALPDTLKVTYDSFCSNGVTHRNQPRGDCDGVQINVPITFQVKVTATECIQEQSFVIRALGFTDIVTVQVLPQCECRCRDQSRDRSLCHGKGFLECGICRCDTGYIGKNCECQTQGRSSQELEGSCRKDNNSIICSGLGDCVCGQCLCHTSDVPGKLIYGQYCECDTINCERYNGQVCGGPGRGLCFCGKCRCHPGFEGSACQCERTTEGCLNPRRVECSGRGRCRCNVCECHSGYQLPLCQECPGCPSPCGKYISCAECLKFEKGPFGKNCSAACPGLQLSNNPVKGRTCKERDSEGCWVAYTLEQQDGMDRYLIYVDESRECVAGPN
CD40L (Homo sapiens), sequence (P29965 113-261): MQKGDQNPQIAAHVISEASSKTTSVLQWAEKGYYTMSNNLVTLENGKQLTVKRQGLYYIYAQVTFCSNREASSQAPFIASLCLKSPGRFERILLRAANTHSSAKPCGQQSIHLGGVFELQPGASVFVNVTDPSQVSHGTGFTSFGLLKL
CD40, sequence (P25942 21-277): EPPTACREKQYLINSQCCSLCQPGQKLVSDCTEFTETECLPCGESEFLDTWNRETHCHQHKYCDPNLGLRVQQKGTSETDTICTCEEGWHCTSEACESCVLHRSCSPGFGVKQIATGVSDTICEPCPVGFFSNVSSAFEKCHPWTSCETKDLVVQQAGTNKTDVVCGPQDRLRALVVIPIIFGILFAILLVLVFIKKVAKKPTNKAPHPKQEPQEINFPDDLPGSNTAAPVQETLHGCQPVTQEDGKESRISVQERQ
CD80 (Homo sapiens), sequence (P33681 35-242): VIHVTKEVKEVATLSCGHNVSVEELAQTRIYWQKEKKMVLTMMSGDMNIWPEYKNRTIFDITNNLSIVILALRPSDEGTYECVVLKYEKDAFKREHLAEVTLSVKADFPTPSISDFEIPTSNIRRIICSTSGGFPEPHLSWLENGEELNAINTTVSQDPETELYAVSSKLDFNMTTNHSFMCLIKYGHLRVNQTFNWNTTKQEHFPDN
CD48 (Homo sapiens), sequence (P09326 27-220): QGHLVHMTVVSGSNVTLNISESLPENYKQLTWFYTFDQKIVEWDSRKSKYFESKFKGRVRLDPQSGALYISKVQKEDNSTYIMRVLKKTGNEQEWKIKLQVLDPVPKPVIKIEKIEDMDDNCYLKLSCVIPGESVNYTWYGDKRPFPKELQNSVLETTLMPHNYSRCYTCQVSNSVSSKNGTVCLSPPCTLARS
CD2, sequence (P06729 25-209): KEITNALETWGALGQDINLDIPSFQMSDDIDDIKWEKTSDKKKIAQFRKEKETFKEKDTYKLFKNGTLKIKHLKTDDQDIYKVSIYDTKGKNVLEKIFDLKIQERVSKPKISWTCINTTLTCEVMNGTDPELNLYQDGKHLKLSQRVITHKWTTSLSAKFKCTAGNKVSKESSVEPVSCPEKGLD
ICAM-1 (Homo sapiens), sequence (P05362 28-480): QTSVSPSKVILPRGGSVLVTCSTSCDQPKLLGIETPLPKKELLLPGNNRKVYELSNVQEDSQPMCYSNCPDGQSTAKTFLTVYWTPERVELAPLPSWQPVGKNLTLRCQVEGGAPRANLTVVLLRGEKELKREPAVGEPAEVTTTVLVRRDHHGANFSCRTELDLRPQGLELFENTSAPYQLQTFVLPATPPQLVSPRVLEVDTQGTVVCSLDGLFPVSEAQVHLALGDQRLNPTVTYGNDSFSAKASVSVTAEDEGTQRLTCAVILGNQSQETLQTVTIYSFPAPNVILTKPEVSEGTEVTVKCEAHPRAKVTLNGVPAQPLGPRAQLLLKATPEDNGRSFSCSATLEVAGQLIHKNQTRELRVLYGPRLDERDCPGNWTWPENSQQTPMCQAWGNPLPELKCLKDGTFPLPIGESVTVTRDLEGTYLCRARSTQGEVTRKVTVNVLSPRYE

On to CD2 (from UniProt P06729), for which, in the data set with CD48 (Homo sapiens), the Kd was 100000 nM.
Turning to CD28 (from UniProt P10747), in the data set with CD80 (Homo sapiens), the dissociation constant Kd was 4000 nM.
CD40 (from UniProt P25942): in the data set with CD40L (Homo sapiens), the dissociation constant Kd is 200 nM.
As for LFA-1 (from UniProt P20701), the Kd in the data set with ICAM-1 (Homo sapiens) was 500 nM.
